From PMC10085679, “Filament assembly underpins the double-stranded DNA specificity of AIM2-like receptors”

T1: AIM2FL (Homo sapiens, UniProt O14862 1-343)
T1 sequence: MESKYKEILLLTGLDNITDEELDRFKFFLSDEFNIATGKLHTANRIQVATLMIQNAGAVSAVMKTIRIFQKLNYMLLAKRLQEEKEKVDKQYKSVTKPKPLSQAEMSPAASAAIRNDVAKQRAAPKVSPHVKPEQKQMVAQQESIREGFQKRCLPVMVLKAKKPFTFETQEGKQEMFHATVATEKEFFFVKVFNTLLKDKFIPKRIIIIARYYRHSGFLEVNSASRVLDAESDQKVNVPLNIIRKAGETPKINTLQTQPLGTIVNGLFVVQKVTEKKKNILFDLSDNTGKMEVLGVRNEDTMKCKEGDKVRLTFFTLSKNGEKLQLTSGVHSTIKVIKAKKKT

T2: AIM2HIN (Homo sapiens, UniProt O14862 144-343)
T2 sequence: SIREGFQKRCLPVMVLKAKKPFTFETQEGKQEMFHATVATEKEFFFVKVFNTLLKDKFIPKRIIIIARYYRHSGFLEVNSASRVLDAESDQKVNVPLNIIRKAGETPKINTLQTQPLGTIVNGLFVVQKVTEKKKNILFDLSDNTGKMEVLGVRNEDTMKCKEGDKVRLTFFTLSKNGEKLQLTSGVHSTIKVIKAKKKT

B1: 60-bp dsRNA (dsRNA)
RNA 1: UAAGACACGAUGCGAUAAAAUCUGUUUGUAAAAUUUAUUAAGGGUACAAAUUGCCCUAGC
RNA 2: GCUAGGGCAAUUUGUACCCUUAAUAAAUUUUACAAACAGAUUUUAUCGCAUCGUGUCUUA
B2: 60-base ssRNA_U (ssRNA)
RNA: UUUCUUUCUUUCUUUCUUUCUUUCUUUCUUUCUUUCUUUCUUUCUUUCUUUCUUUCUUUC
B3: 60-base ssDNA_T (ssDNA)
DNA: TTTCTTTCTTTCTTTCTTTCTTTCTTTCTTTCTTTCTTTCTTTCTTTCTTTCTTTCTTTC
B4: 60-base ssDNA_A (ssDNA)
DNA: AAAGAAAGAAAGAAAGAAAGAAAGAAAGAAAGAAAGAAAGAAAGAAAGAAAGAAAGAAAG
B5: 60-base ssRNA_A (ssRNA)
RNA: B4 DNA
B6: 24-bp dsDNA (dsDNA)
DNA 1: TAAGACACGATGCGATAAAATCTG
DNA 2: CAGATTTTATCGCATCGTGTCTTA
B7: 60-bp dsDNA (dsDNA)
DNA 1: TAAGACACGATGCGATAAAATCTGTTTGTAAAATTTATTAAGGGTACAAATTGCCCTAGC
DNA 2: GCTAGGGCAATTTGTACCCTTAATAAATTTTACAAACAGATTTTATCGCATCGTGTCTTA
B8: 24-bp DNA:RNA hybrid (DNA:RNA)
DNA: TAAGACACGATGCGATAAAATCTG
RNA: CAGAUUUUAUCGCAUCGUGUCUUA
B9: 24-bp dsRNA (dsRNA)
RNA 1: UAAGACACGAUGCGAUAAAAUCUG
RNA 2: CAGAUUUUAUCGCAUCGUGUCUUA

Target: T3, IFI16FL (Homo sapiens, UniProt Q16666-2 1-729)
Test: fluorescence anisotropy; 160 mM KCl (60 mM KCl for IFI16HinAB); buffer, pH and temperature not given in the available text
Details: protein: recombinant; tags: C-terminal His6

T3 sequence (Q16666 other isoform, or with tags, fused parts or gaps): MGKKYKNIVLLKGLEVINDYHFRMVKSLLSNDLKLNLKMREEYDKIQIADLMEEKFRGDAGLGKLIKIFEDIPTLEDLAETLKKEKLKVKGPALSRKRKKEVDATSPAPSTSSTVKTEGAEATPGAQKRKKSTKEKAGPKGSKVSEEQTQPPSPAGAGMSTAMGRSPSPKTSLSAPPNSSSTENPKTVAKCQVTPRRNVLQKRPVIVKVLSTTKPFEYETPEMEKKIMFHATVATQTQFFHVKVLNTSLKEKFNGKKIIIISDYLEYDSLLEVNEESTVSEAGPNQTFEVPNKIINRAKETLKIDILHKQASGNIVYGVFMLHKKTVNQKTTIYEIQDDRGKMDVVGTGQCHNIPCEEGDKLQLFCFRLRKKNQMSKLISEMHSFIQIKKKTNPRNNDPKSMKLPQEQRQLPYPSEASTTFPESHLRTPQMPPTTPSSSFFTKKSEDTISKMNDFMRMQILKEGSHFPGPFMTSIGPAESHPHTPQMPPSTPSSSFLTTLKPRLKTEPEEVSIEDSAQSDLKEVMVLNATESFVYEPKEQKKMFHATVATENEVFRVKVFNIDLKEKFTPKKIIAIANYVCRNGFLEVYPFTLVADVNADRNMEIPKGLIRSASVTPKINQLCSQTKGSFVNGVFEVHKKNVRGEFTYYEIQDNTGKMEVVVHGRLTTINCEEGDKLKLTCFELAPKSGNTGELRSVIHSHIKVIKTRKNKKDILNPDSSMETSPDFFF

| Binder | Kd [nM] |
| --- | --- |
| B1 | 85 ± 7 |
| B2 | 78 ± 11 |
| B3 | 22 ± 4 |

Target: T1, AIM2FL
Test: as above
Details: protein: recombinant

| Binder | Kd [nM] |
| --- | --- |
| B1 | 50 ± 10 |
| B4 | 150 ± 30 |
| B5 | 400 ± 100 |
| B2 | 80 ± 20 |
| B3 | 320 ± 80 |

Same assay, conditions: protein: recombinant; label: FAM

| Binder | Kd [nM] |
| --- | --- |
| B6 | 80 ± 20 |

Target: T4, IFI16HinAB (Homo sapiens, UniProt Q16666-2 159-729)
Test: as above
Details: protein: recombinant

T4 sequence (Q16666 other isoform, or with tags, fused parts or gaps): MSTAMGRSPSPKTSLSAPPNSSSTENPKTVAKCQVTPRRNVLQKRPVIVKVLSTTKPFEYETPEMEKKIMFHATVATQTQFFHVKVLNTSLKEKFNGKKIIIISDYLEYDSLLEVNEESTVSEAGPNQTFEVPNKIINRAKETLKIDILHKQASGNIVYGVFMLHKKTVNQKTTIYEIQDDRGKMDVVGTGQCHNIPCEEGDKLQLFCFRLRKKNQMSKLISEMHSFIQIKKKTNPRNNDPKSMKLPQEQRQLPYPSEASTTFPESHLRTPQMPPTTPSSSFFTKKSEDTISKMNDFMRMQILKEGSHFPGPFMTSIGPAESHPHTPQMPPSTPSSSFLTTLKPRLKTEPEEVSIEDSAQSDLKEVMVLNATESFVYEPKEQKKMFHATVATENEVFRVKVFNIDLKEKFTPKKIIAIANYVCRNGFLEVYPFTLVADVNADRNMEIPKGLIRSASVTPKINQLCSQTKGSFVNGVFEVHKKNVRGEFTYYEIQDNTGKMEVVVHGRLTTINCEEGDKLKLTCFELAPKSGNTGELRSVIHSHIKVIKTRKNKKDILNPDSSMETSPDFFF

| Binder | Kd [nM] |
| --- | --- |
| B1 | 30 ± 10 |
| B2 | 30 ± 10 |
| B3 | 70 ± 20 |
| B7 | 20 ± 10 |

Target: T2, AIM2HIN
Test: as above
Details: protein: recombinant

| Binder | Kd [nM] |
| --- | --- |
| B1 | 1100 ± 200 |
| B4 | 2700 ± 100 |
| B5 | 1400 ± 200 |
| B2 | 300 ± 100 |
| B3 | 400 ± 100 |
| B7 | 600 ± 100 |

Same assay, conditions: protein: recombinant; label: FAM

| Binder | Kd [nM] |
| --- | --- |
| B6 | 900 ± 200 |
| TTTCTTTCTTTCTTTCTTTCTTTC (ssDNA) [24-base ssDNA_T] | 1200 ± 200 |
| B8 | 900 ± 100 |
| UUUCUUUCUUUCUUUCUUUCUUUC (ssRNA) [24-base ssRNA_U] | 210 ± 60 |
| B9 | 1200 ± 200 |

Target: T4, IFI16HinAB
Test: EMSA; low salt; 160 mM KCl; 60 mM KCl for IFI16HinAB; FAM probe 3-6 nM (FA) or 20 nM (EMSA); binding buffer pH and temperature not in the material
Details: protein: recombinant; label: FAM

| Binder | Kd [nM] |
| --- | --- |
| AAAGAAAGAAAGAAAGAAAGAAAG (ssRNA) [24-base ssRNA_A] | ~500 |
| UUUCUUUCUUUCUUUCUUUCUUUC (ssRNA) [24-base ssRNA_U] | ~500 |

Target: T3, IFI16FL
Test: fluorescence anisotropy; 160 mM KCl; 60 mM KCl for IFI16HinAB; FAM probe 3-6 nM (FA) or 20 nM (EMSA); binding buffer pH and temperature not in the material
Details: protein: recombinant; tags: C-terminal His6

| Binder | Kd [nM] |
| --- | --- |
| B1 | 85 ± 7 |
| B4 | 150 ± 20 |
| B2 | 78 ± 11 |
| B3 | 22 ± 4 |

Target: T1, AIM2FL
Test: as above
Details: protein: recombinant

| Binder | Kd [nM] |
| --- | --- |
| B1 | 50 ± 10 |
| B4 | 150 ± 30 |
| B5 | 400 ± 100 |
| B2 | 80 ± 20 |
| B3 | 320 ± 80 |

Target: T2, AIM2HIN
Test: as above
Details: protein: recombinant

| Binder | Kd [nM] |
| --- | --- |
| B4 | 2700 ± 100 |

Same assay, conditions: protein: recombinant; label: FAM

| Binder | Kd [nM] |
| --- | --- |
| AAAGAAAGAAAGAAAGAAAGAAAG (ssDNA) [24-base ssDNA_A] | 5700 ± 700 |

Target: T4, IFI16HinAB
Test: EMSA; apparent KD >=1 uM; low salt; 160 mM KCl; 60 mM KCl for IFI16HinAB; FAM probe 3-6 nM (FA) or 20 nM (EMSA); binding buffer pH and temperature not in the material
Details: protein: recombinant; label: FAM

| Binder | Kd [nM] |
| --- | --- |
| TTTCTTTCTTTCTTTCTTTCTTTC (ssDNA) [24-base ssDNA_T] | > 1000 |
| AAAGAAAGAAAGAAAGAAAGAAAG (ssDNA) [24-base ssDNA_A] | > 1000 |
| B9 | > 1000 |

Target: T4, IFI16HinAB
Test: fluorescence anisotropy; 60 mM KCl; 160 mM KCl; 60 mM KCl for IFI16HinAB; FAM probe 3-6 nM (FA) or 20 nM (EMSA); binding buffer pH and temperature not in the material
Details: protein: recombinant

| Binder | Kd [nM] |
| --- | --- |
| B4 | 500 ± 200 |

Target: T4, IFI16HinAB
Test: EMSA; apparent KD <=250 nM; low salt; 160 mM KCl; 60 mM KCl for IFI16HinAB; FAM probe 3-6 nM (FA) or 20 nM (EMSA); binding buffer pH and temperature not in the material
Details: protein: recombinant; label: FAM

| Binder | Kd [nM] |
| --- | --- |
| B6 | < 250 |
| B8 | < 250 |

Target: T1, AIM2FL
Test: fluorescence anisotropy; upper-limit estimate; 160 mM KCl; 60 mM KCl for IFI16HinAB; FAM probe 3-6 nM (FA) or 20 nM (EMSA); binding buffer pH and temperature not in the material
Details: protein: recombinant

| Binder | Kd [nM] |
| --- | --- |
| B7 | < 3 |

Target: T3, IFI16FL
Test: fluorescence anisotropy; printed 0.003*, upper-limit estimate; 160 mM KCl; 60 mM KCl for IFI16HinAB; FAM probe 3-6 nM (FA) or 20 nM (EMSA); binding buffer pH and temperature not in the material
Details: protein: recombinant; tags: C-terminal His6

| Binder | Kd [nM] |
| --- | --- |
| B7 | < 3 |

Target: T1, AIM2FL
Test: competition fluorescence anisotropy; unlabelled competitor against 6 nM 60-bp FAM-dsDNA, 60 nM protein; 160 mM KCl (60 mM KCl for IFI16HinAB); buffer, pH and temperature not given in the available text
Details: protein: recombinant

| Binder | IC50 [nM] |
| --- | --- |
| B5 | 1020 ± 130 |
| B7 | 142 ± 8.5 |

Target: T1, AIM2FL
Test: competition fluorescence anisotropy; unlabelled competitor against 6 nM 24-bp FAM-dsDNA, 100 nM protein; 160 mM KCl (60 mM KCl for IFI16HinAB); buffer, pH and temperature not given in the available text
Details: protein: recombinant

| Binder | IC50 [nM] |
| --- | --- |
| B1 | 69.7 ± 6.7 |
| B4 | 58.9 ± 6.7 |
| B5 | 46.1 ± 2.7 |
| B2 | 273 ± 171 |
| B3 | 165 ± 7.3 |
| B7 | 11.8 ± 0.3 |

Target: T3, IFI16FL
Test: competition fluorescence anisotropy; unlabelled competitor against 6 nM 24-bp FAM-dsDNA, 500 nM protein; 160 mM KCl (60 mM KCl for IFI16HinAB); buffer, pH and temperature not given in the available text
Details: protein: recombinant; tags: C-terminal His6

| Binder | IC50 [nM] |
| --- | --- |
| B1 | 490 ± 40.3 |
| B2 | 305 ± 48.5 |
| B3 | 644 ± 133 |

Same assay, conditions: protein: recombinant; tags: C-terminal His6; chain copies: 4

| Binder | IC50 [nM] |
| --- | --- |
| B7 | 331 ± 29.8 |

Target: T2, AIM2HIN
Test: competition fluorescence anisotropy; unlabelled competitor against 6 nM 24-bp FAM-dsDNA, 625 nM protein; 160 mM KCl (60 mM KCl for IFI16HinAB); buffer, pH and temperature not given in the available text
Details: protein: recombinant

| Binder | IC50 [nM] |
| --- | --- |
| B1 | 92.9 ± 2.8 |
| B4 | 134 ± 16.6 |
| B5 | 132.8 ± 0.4 |
| B2 | 219 ± 33.5 |
| B3 | 113 ± 7.3 |
| B7 | 19.7 ± 1.9 |

Target: T3, IFI16FL
Test: competition fluorescence anisotropy; unlabelled competitor against 6 nM 60-bp FAM-dsDNA, 100 nM protein; 160 mM KCl (60 mM KCl for IFI16HinAB); buffer, pH and temperature not given in the available text
Details: protein: recombinant; tags: C-terminal His6

| Binder | IC50 [nM] |
| --- | --- |
| B1 | 1070 ± 132 |
| B5 | 166 ± 18 |
| B2 | 1120 ± 75.5 |

Same assay, conditions: protein: recombinant; tags: C-terminal His6; chain copies: 4

| Binder | IC50 [nM] |
| --- | --- |
| B7 | 627 ± 132 |

Target: T4, IFI16HinAB
Test: competition fluorescence anisotropy; unlabelled competitor against 6 nM 60-bp FAM-dsDNA, 400 nM protein; 160 mM KCl (60 mM KCl for IFI16HinAB); buffer, pH and temperature not given in the available text
Details: protein: recombinant

| Binder | IC50 [nM] |
| --- | --- |
| B1 | 1430 ± 366 |
| B4 | 3010 |
| B5 | 1970 ± 90 |
| B3 | 1390 ± 137 |
| B7 | 258 ± 24.9 |

Target: T2, AIM2HIN
Test: as above
Details: protein: recombinant

| Binder | IC50 [nM] |
| --- | --- |
| B1 | 281 ± 53.1 |
| B5 | 1230 ± 483 |
| B2 | 741 ± 70.3 |
| B3 | 1000 ± 259 |
| B7 | 268 ± 8.4 |

Target: T4, IFI16HinAB
Test: competition fluorescence anisotropy; unlabelled competitor against 6 nM 24-bp FAM-dsDNA, 1000 nM protein; 160 mM KCl (60 mM KCl for IFI16HinAB); buffer, pH and temperature not given in the available text
Details: protein: recombinant

| Binder | IC50 [nM] |
| --- | --- |
| B1 | 1130 ± 61.7 |
| B2 | 733 ± 48.5 |
| B3 | 828 ± 155 |
| B7 | 289 ± 37.3 |
